Results reported in patent publication US20150202250A1.

Target: isolated NS2B-NS3 protein complex from the DENV-2 viral genome (Dengue virus type 2 (DENV-2)) (UniProt P14340)
Experiment: cell-based or functional assay

Chain of UniProt P14340 (P14340 1394-1440 limits assumed, chain 1 of 2): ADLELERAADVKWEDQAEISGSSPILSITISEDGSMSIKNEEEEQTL
Chain of UniProt P14340 (P14340 1476-1660 limits assumed, chain 2 of 2): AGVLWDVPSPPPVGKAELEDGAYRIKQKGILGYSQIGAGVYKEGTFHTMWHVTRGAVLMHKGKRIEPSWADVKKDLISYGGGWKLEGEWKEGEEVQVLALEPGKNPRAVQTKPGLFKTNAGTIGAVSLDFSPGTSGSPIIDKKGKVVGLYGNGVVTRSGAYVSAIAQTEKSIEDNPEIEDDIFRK

B1: RetroMAD1 (protein)
chain: MGRICRCICGRGICRCICGVPGVGVPGVGGATGSDVNFDLSTATAKTYTKFIEDFRATLPFSHKVYDIPLLYSTISDSRRFILLDLTSYAYETISVAIDVTNVYVVAYRTRDVSYFFKESPPEAYNILFKGTRKITLPYTGNYENLQTAAHKIRENIDLGLPALSSAITTLFYYNAQSAPSALLVLIQTTAEAARFKYIERHVAKYVATNFKPNLAIISLENQWSALSKQIFLAQNQGGKFRNPVDLIKPTGERFQVTNVDSDVVKGNIKLLLNSRASTADENFITTMTLLGESVVEFPWALWKTMLKELGTMALHAGKAALGAAADTISQGTQVPGVGVPGVGKLAAALEHHHHHH
  inhibition of NS2B-NS3 protease (cleavage of fluorogenic peptide substrate) (% inhibition at 10.8 µM): 94.3
